From paper PMC6416337

Target: 14-3-3λ (UniProt P48349)
Experiment: GST pull-down, anti-14-3-3 blot
Conditions: reference: SOS2-JD without PKS5; sites S294

binding against the reference: stronger
Substance: SOS2 junction domain (SOS2-JD) (from UniProt Q9LDI3) SOS2-JD incubated with PKS5 and ATP
